Several values for one entry are separate records, joined by “and”; a condition that tells them apart may be missing. Equal values may be shown once. Blank lines part the entries; values can stand above or below the binder they belong to.
How the values were obtained:
[1] = target: T1, human insulin receptor extracellular domain (HIR ECD) (human, UniProt P06213 28-956, limits assumed); experiment: ELISA, HIR ECD plated; CHO-derived protein
T1 construct: extracellular domain; Plated on 96-well dishes in the ELISA
Description: The estimated MW of the hetero-tetrameric HIRMAb-HEXA fusion protein shown in FIG. 2 is 318 kDa, based on migration in the SDS-PAGE of the Western blot. The affinity of the fusion protein for the HIR extracellular domain (ECD) was determined with an ELISA. CHO cells permanently transfected with the HIR ECD were grown in serum free media (SFM), and the HIR ECD was purified with a wheat germ agglutinin affinity column, as previously described in Coloma et al. (2000) Pharm Res, 17:266-274. The HIR ECD was plated on Nunc-Maxisorb 96 well dishes and the binding of the HIR Ab, or the HIR Ab-HEXA fusion protein, to the HIR ECD was detected with a secondary antibody, followed by binding with an alkaline phosphatase detector reagent. […] The MW of the HIR Ab is 150 kDa, and the MW of the HIR Ab-fusion protein is 318 kDa.
The CHO line producing the HIR Ab-HEXA fusion protein was generated from CHO cells following 2 rounds of DC as described above. The accession cell line was propagated in a 2L shake flask in SFM on an orbital shaker and the CHO-derived fusion protein was purified by protein A affinity chromatography. […] The potency of the CHO-derived fusion protein as assessed with the HIR ECD binding ELISA, as described above.

[2] = target: T1, human insulin receptor extracellular …; experiment: ELISA, HIR ECD plated; COS-derived protein; normalised with MW 318 kDa
Description: (§1) The COS-derived HIR Ab-HEXA fusion protein (also designated HIRMAb-HEXA), following purification with protein A affinity chromatography, was assessed for purity by reducing sodium dodecysulfate polyacrylamide gel electrophoresis (SDS-PAGE) as shown in FIG. 10. Only the HC and LC proteins are detected for either the HIRMAb alone or the HIRMAb-HEXA fusion protein. For the HIRMAb alone the higher molecular weight (MW) band is the HC and the lower MW band is the LC. For the HIRMAb-HEXA fusion protein, the higher MW band is the […]. The identity of the fusion protein was verified by Western blotting using primary antibodies to either human IgG (FIG. 11, left panel) or human HEXA (FIG. 11, right panel). The molecular weight (MW) of the HIRMAb-HEXA heavy and light chains are estimated by linear regression based on the migration of the MW standards. […] The affinity of the fusion protein for the HIR extracellular domain (ECD) was determined with an ELISA. […] The HIR ECD was plated on Nunc-Maxisorb 96 well dishes and the binding of the HIR Ab, or the HIR Ab-HEXA fusion protein, to the HIR ECD was detected with a secondary antibody, followed by binding with an alkaline phosphatase detector reagent. […]

[3] = target: T1, human insulin receptor extracellular …; experiment: ELISA, HIR ECD plated, secondary antibody and alkaline phosphatase detection; COS-derived protein
Description: as §1

[4] = target: T1, human insulin receptor extracellular …; experiment: ELISA, HIR ECD plated (HIR receptor assay)
[5] = target: T1, human insulin receptor extracellular …; experiment: ELISA, HIR ECD plated; normalised with MW 150 kDa
Description: as §1

[6] = target: T1, human insulin receptor extracellular …; experiment: ELISA, recombinant HIR ECD plated; normalised with MW 150 kDa
Description: (§2) The potency of the CHO-derived fusion protein was assessed with the HIR ECD binding ELISA. The affinity of the fusion protein for the HIR extracellular domain (ECD) was determined with an ELISA. Recombinant HIR ECD was plated on Nunc-Maxisorb 96 well dishes and the binding of the HIR Ab, or the HIR Ab-PPT1 fusion protein, to the HIR ECD was detected with a secondary antibody, followed by binding with an alkaline phosphatase detector reagent. […] The MW of the HIR Ab is 150 kDa, and the MW of the HIR Ab-fusion protein is 246 kDa.

[7] = target: T1, human insulin receptor extracellular …; experiment: ELISA, HIR ECD plated, biotinylated goat anti-human IgG detection
[8] = target: T1, human insulin receptor extracellular …; experiment: ELISA, HIR ECD plated, secondary antibody and alkaline phosphatase detection
Description: as §1

[9] = target: T1, human insulin receptor extracellular …; experiment: ELISA, recombinant HIR ECD plated, secondary antibody and alkaline phosphatase detection
Description: as §2

[10] = target: T1, human insulin receptor extracellular …; experiment: ELISA, recombinant HIR ECD plated, secondary antibody and alkaline phosphatase detection; CHO-derived HIR Ab
Description: as §2, with “The” for “The potency of the CHO-derived fusion protein was assessed with the HIR ECD binding ELISA. The”, “Ab-ASM” for “Ab-PPT1”, “320” for “246”

[11] = target: T1, human insulin receptor extracellular …; experiment: ELISA, recombinant HIR ECD plated; CHO-derived protein; normalised with MW 246 kDa
Description: as §2

[12] = target: T1, human insulin receptor extracellular …; experiment: ELISA, recombinant HIR ECD plated, secondary antibody and alkaline phosphatase detection; CHO-derived protein
Description: as §2, with “The” for “The potency of the CHO-derived fusion protein was assessed with the HIR ECD binding ELISA. The”, “Ab-ASM” for “Ab-PPT1”, “320” for “246”
as §2

[13] = target: T1, human insulin receptor extracellular …; experiment: ELISA, recombinant HIR ECD plated; CHO-derived protein; normalised with MW 320 kDa
Description: as §2, with “The” for “The potency of the CHO-derived fusion protein was assessed with the HIR ECD binding ELISA. The”, “Ab-ASM” for “Ab-PPT1”, “320” for “246”

B1: HIR Ab-HEXA fusion protein (antibody, human IgG1, human IgG3, kappa)
heavy: not shown
light: DIQMTQSPSSLSASLGERVSLTCRASQDIGGNLYWLQQGPDGTIKRLIYATSSLDSGVPKRFSGSRSGSDYSLTISSLESEDFVDYYCLQYSSSPWTFGGGTKMEIKRTVAAPSVFIFPPSDEQLKSGTASVVCLLNNFYPREAKVQWKVDNALQSGNSQESVTEQDSKDSTYSLSSTLTLSKADYEKHKVYACEVTHQGLSSPVTKSFNRGECSSSELKTPLGDTTHTSPRSPAPEFLGGPSSSLWPWPQNFQTSDQRYVLYPNNFQFQYDVSSAAQPGCSVLDEAFQRYRDLLFGSGSWPRPYLTGKRHTLEKNVLVVSVVTPGCNQLPTLESVENYTLTINDDQCLLLSETVWGALRGLETFSQLVWKSAEGTFFINKTEIEDFPRFPHRGLLLDTSRHYLPLSSILDTLDVMAYNKLNVFHWHLVDDPSFPYESFTFPELMRKGSYNPVTHIYTAQDVKEVIEYARLRGIRVLAEFDTPGHTLSWGPGIPGLLTPCYSGSEPSGTFGPVNPSLNNTYEFMSTFFLEVSSVFPDFYLHLGGDEVDFTCWKSNPEIQDFMRKKGFGEDFKQLESFYIQTLLDIVSSYGKGYVVWQEVFDNKVKIQPDTIIQVWREDIPVNYMKELELVTKAGFRALLSAPWYLNRISYGPDWKDFYIVEPLAFEGTPEQKALVIGGEACMWGEYVDNTNLVPRLWPRAGAVAERLWSNKLTSDLTFAYERLSHFRCELLRRGVQAQPLNVGFCEQEFEQT
notes: also called HIRMAb-HEXA; HIR Ab LC-HEXA + HIR Ab HC
- EC50 [1]: 0.122 µg/mL
- EC50 [2]: 0.35 nM
- EC50 [3]: 0.112 µg/mL

B4: HIR Ab-ASM fusion protein (antibody, human IgG1, human IgG3, kappa)
heavy: not shown
light: DIQMTQSPSSLSASLGERVSLTCRASQDIGGNLYWLQQGPDGTIKRLIYATSSLDSGVPKRFSGSRSGSDYSLTISSLESEDFVDYYCLQYSSSPWTFGGGTKMEIKRTVAAPSVFIFPPSDEQLKSGTASVVCLLNNFYPREAKVQWKVDNALQSGNSQESVTEQDSKDSTYSLSSTLTLSKADYEKHKVYACEVTHQGLSSPVTKSFNRGECSSSELKTPLGDTTHTSPRSPAPEFLGGPSSSHPLSPQGHPARLHRIVPRLRDVFGWGNLTCPICKGLFTAINLGLKKEPNVARVGSVAIKLCNLLKIAPPAVCQSIVHLFEDDMVEVWRRSVLSPSEACGLLLGSTCGHWDIFSSWNISLPTVPKPPPKPPSPPAPGAPVSRILFLTDLHWDHDYLEGTDPDCADPLCCRRGSGLPPASRPGAGYWGEYSKCDLPLRTLESLLSGLGPAGPFDMVYWTGDIPAHDVWHQTRQDQLRALTTVTALVRKFLGPVPVYPAVGNHESTPVNSFPPPFIEGNHSSRWLYEAMAKAWEPWLPAEALRTLRIGGFYALSPYPGLRLISLNMNFCSRENFWLLINSTDPAGQLQWLVGELQAAEDRGDKVHIIGHIPPGHCLKSWSWNYYRIVARYENTLAAQFFGHTHVDEFEVFYDEETLSRPLAVAFLAPSATTYIGLNPGYRVYQIDGNYSGSSHVVLDHETYILNLTQANIPGAIPHWQLLYRARETYGLPNTLPTAWHNLVYRMRGDMQLFQTFWFLYHKGHPPSEPCGTPCRLATLCAQLSARADSPALCRHLMPDGSLPEAQSLWPRP
notes: Hetero-tetramer, MW 320 kDa; The ELISA used CHO-derived protein; also called HIRMAb-ASM; HIR Ab LC-ASM + HIR Ab HC
- EC50 [13]: 0.93 nM
- EC50 [12]: 0.299 µg/mL

The remaining lines, values ahead:

- EC50 [4]: 0.25 nM
- EC50 [5]: 0.23 nM
- EC50 [6]: 0.32 nM and 0.26 nM
- EC50 [7]: 0.77 nM
- EC50 [8]: 0.034 µg/mL
- EC50 [9]: 0.039 µg/mL
- EC50 [10]: 0.047 µg/mL
B2: chimeric HIR Ab (antibody to the human insulin receptor) (antibody, human IgG1, kappa)
heavy: not shown
light: DIQMTQSPSSLSASLGERVSLTCRASQDIGGNLYWLQQGPDGTIKRLIYATSSLDSGVPKRFSGSRSGSDYSLTISSLESEDFVDYYCLQYSSSPWTFGGGTKMEIKRTVAAPSVFIFPPSDEQLKSGTASVVCLLNNFYPREAKVQWKVDNALQSGNSQESVTEQDSKDSTYSLSSTLTLSKADYEKHKVYACEVTHQGLSSPVTKSFNRGEC
notes: also called HIRMAb; chimeric HIRMAb

- EC50 [11]: 0.38 nM
- EC50 [12]: 0.094 µg/mL
B3: HIR Ab-LL-PPT1 fusion protein (31-amino acid linker) (antibody, human IgG1, human IgG3, kappa)
heavy: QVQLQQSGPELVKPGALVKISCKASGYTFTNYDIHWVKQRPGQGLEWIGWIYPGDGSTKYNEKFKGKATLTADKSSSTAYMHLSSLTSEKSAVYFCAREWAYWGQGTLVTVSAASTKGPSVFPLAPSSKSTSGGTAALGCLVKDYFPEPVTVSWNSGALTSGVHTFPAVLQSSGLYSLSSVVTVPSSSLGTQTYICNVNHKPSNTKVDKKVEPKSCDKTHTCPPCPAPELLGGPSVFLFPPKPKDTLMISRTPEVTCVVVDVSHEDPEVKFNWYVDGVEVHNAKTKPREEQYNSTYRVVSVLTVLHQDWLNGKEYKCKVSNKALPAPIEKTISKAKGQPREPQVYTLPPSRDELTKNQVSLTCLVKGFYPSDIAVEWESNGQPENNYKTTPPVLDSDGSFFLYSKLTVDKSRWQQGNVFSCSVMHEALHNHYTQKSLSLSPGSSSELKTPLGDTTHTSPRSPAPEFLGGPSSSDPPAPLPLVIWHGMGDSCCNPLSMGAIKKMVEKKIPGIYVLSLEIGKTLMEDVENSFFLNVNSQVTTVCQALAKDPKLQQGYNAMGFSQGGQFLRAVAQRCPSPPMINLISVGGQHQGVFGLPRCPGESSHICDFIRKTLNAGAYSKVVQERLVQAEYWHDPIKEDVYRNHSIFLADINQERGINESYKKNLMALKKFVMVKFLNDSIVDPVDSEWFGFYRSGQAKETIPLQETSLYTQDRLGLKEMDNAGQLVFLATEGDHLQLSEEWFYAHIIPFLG
light: DIQMTQSPSSLSASLGERVSLTCRASQDIGGNLYWLQQGPDGTIKRLIYATSSLDSGVPKRFSGSRSGSDYSLTISSLESEDFVDYYCLQYSSSPWTFGGGTKMEIKRTVAAPSVFIFPPSDEQLKSGTASVVCLLNNFYPREAKVQWKVDNALQSGNSQESVTEQDSKDSTYSLSSTLTLSKADYEKHKVYACEVTHQGLSSPVTKSFNRGEC
notes: Hetero-tetramer, MW 246 kDa; The ELISA used CHO-derived protein; also called HIR Ab-PPT1; HIRMAb-PPT1

Reference: patent US20240252667A1 (ARMAGEN, published 2024)
